Activity data for three molecules are collected here from patent publication US6635440, “Method of isolation of RNA-binding compounds” (European Molecular Biology Laboratory).

In one data set the target is MS2 coat protein (Bacteriophage MS2, UniProt P03612 P03612:2-130). The experiment in a line: cell_activity; GFP repression in yeast, galactose vs glucose. Particulars: tags: expressed from YCpCP in S. cerevisiae RS453; chain copies: 2; hairpin. From the text:
(§1) YCpU1A, YCpIRP-1 and YCpCP were used for the galactose inducible expression of U1A, IRP-1 and MS2 coat protein, respectively. These plasmids contain a URA3 selection marker. The sequences and nomenclature of the GFP reporter plasmids are described in FIG. 3. Binding site insertions are represented by Capital letters. Differences between wild type and mutated binding sites are indicated by arrows.
(§2) This reduction specifically requires the presence of the wild type binding site and the cognate binding protein, and is not seen with either the mutant binding sites (FIG. 4c and f) or the non-cognate binding proteins (FIGS. 4a and d).

The target in the next data set is U1A spliceosomal protein (UniProt P09012 P09012:2-282). The data set is described as above. Particulars: tags: expressed from YCpU1A in S. cerevisiae RS453; hairpin.
Text: as §1, §2

Chain of MS2 coat protein (P03612 2-130, one chain of several): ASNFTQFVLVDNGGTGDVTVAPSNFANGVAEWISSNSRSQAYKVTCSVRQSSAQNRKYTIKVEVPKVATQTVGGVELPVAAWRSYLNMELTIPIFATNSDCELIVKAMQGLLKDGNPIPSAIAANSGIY
Chain of U1A spliceosomal protein (P09012 2-282, one chain of several): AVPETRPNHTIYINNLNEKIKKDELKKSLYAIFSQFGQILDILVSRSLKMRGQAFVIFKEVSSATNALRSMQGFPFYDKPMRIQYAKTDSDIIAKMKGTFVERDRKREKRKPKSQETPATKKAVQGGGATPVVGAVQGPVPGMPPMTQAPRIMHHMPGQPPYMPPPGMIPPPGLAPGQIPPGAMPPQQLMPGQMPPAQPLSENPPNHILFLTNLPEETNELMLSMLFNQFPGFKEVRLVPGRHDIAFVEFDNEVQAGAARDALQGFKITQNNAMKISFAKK

B1: MSC GFP 5'UTR (ssRNA)
RNA: AAUUAUCUACUUAAGGACCAUCAGGCCUUAAGAACACAAAACUCGAGAACAUAUUUUUAAUAUUAUG
The molecule B1 had an activity with MS2 coat protein of roughly 70 % repression.

B2: MSA GFP 5'UTR (ssRNA)
RNA: AAUUAUCUACUUAAGGACCAUAAGGCCUUAAGAACACAAAACUCGAGAACAUAUUUUUAAUAUUAUG
For the molecule B2, the activity with MS2 coat protein is roughly 50 % repression.

B3: U1Awt (U1 snRNA loop 2) GFP 5'UTR (ssRNA)
RNA: AAUUAUCUACUUAAGCGAUUGCACUCCCGCUUAAGAACACAAAACUCGAGAACAUAUUUUUAAUAUUAUG
In the data set with U1A spliceosomal protein, B3 came in with an activity of roughly 40 % repression.
